Test [1] concerns the target 1059-SOSIP soluble Env trimer produced in FreeStyle 293 F cells (HIV-1 1059). As to the kind of experiment: SEC; HiLoad 16/600 Superdex 200 pg column after GNA lectin affinity purification; trimeric fractions taken. A general note: Size exclusion chromatography separates by hydrodynamic size, large species first.
Test [2] deals with 1059-SOSIP soluble Env trimer produced in HEK293 cells grown in BalanCD medium (HIV-1 1059). Described as above.

For orientation: stoichiometry N means a count of units in the complex or per binding partner. Turning to “1059-SOSIP soluble Env trimer produced in FreeStyle 293 F cells (domain or fragment)”, the stoichiometry N in test [1] was 3. “1059-SOSIP soluble Env trimer produced in HEK293 cells grown in BalanCD medium (domain or fragment)”: the stoichiometry N in test [2] worked out at 3.
